Measurements taken from patent US20160009798A1.
pKd: −log10 of the molar value.

Experiments:
[1] = target: human oncostatin M (OSM), in-house recombinant, mammalian-cell derived (human) (UniProt P13725); assay: SPR competition, human OSM captured on immobilized M64 (competitor), sample injected at 300 nM, second chip
[2] = target: human oncostatin M (OSM), in-house recombinant, mammalian-cell derived (human) (UniProt P13725); assay: SPR competition, human OSM captured on immobilized M69 (competitor), sample injected at 300 nM
[3] = target: human oncostatin M (OSM), in-house recombinant, mammalian-cell derived (human) (UniProt P13725); assay: SPR competition, human OSM captured on immobilized M55 (competitor), sample injected at 300 nM, second chip
[4] = target: human oncostatin M (OSM), in-house recombinant, mammalian-cell derived (human) (UniProt P13725); assay: cell-based or functional assay
[5] = target: Cynomolgus monkey (Macaca fascicularis) oncostatin M, in-house recombinant (Cynomolgus monkey (Macaca fascicularis)); assay: SPR (Biacore 3000), mAb captured by anti-Fc, OSM as analyte
Cynomolgus monkey (Macaca fascicularis) oncostatin M, in-house recombinant (Cynomolgus monkey (Macaca fascicularis)), sequence (P13725 other isoform, or with tags, fused parts or gaps limits assumed): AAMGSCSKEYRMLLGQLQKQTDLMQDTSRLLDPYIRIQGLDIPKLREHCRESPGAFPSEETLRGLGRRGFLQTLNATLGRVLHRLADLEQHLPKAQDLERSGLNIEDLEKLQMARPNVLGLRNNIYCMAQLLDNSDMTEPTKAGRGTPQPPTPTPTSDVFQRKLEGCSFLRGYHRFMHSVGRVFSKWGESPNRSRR

[6] = target: human oncostatin M (OSM), in-house recombinant, mammalian-cell derived (human) (UniProt P13725); assay: as above
[7] = target: human oncostatin M (OSM), in-house recombinant, mammalian-cell derived (human) (UniProt P13725); assay: SPR competition, human OSM captured on immobilized M71 (competitor), sample injected at 300 nM
[8] = target: human oncostatin M (OSM), in-house recombinant, mammalian-cell derived (human) (UniProt P13725); assay: SPR competition, human OSM captured on immobilized M54 (competitor), sample injected at 300 nM
[9] = target: human oncostatin M (OSM), in-house recombinant, mammalian-cell derived (human) (UniProt P13725); assay: SPR competition, human OSM captured on immobilized M2 (competitor), sample injected at 300 nM, second chip
[10] = target: human oncostatin M (OSM), in-house recombinant, mammalian-cell derived (human) (UniProt P13725); assay: SPR competition, human OSM captured on immobilized M2 (competitor), sample injected at 300 nM

human oncostatin M (OSM), in-house recombinant, mammalian-cell derived (human), sequence (P13725 26-221 limits assumed): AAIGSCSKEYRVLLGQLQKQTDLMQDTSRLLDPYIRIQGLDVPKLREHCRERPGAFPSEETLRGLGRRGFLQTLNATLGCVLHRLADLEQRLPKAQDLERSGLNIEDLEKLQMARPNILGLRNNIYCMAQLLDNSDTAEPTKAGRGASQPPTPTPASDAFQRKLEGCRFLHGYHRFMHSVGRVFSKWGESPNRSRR

Binding Level (RU) [1]: 1950 RU | Binding Level (RU) [2]: 2390 RU | Binding Level (RU) [3]: 2950 RU | EC50, pSTAT3 inhibition in A375 cells with 5 ng/ml hOSM [4]: 72.1 ng/ml | KD ratio Cyno/Human [5]: 10.7 | pKd [5]: 7.70 | koff [5]: 0.0141 s⁻¹ | kon [5]: 710000 M⁻¹ s⁻¹ | pKd [6]: 8.73 | koff [6]: 0.00217 s⁻¹ | kon [6]: 1.18e+06 M⁻¹ s⁻¹ | Binding Level (RU) [7]: 1990 RU | Binding Level (RU) [8]: 2900 RU | Binding Level (RU) [9]: -80 RU | Binding Level (RU) [10]: -83 RU
Substance: MAB295 (R&D Systems) (antibody)
